Legend:
[1] = molecular target: WIV1 (bat coronavirus WIV1)
[2] = molecular target: Civet 007-2004 (civet SARS-related coronavirus 007-2004)
[3] = molecular target: Rs4231 (bat coronavirus Rs4231)
[4] = molecular target: Frankfurt 1 (SARS-CoV isolate Frankfurt 1)
[5] = molecular target: SHC014 (bat coronavirus Rs SHC014)
[6] = molecular target: SARS-CoV-2 (SARS-CoV-2)
[7] = molecular target: CS24 (SARS-related coronavirus CS24)
[8] = molecular target: A021 (SARS-related coronavirus A021)
[9] = molecular target: LYRa11 (bat coronavirus LYRa11)
[10] = molecular target: GD-Pangolin (GD-Pangolin coronavirus)
[11] = molecular target: SARS-CoV-1 (SARS-CoV)
[12] = molecular target: RaTG13 (bat coronavirus RaTG13)

Chain of ADI-58125 (antibody) (VH): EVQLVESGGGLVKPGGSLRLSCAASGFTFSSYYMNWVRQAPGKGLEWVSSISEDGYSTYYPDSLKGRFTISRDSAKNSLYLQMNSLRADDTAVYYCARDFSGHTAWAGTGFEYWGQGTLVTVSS
Chain of ADI-58125 (antibody) (VL): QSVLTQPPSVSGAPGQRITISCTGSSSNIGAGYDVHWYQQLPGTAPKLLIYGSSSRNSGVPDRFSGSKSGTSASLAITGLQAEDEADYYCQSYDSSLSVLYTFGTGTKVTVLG
Chain of VYD224 (antibody) (VH): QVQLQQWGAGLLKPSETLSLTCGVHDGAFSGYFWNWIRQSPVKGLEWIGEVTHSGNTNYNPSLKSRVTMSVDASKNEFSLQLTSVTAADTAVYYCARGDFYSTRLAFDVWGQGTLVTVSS
Chain of VYD224 (antibody) (VL): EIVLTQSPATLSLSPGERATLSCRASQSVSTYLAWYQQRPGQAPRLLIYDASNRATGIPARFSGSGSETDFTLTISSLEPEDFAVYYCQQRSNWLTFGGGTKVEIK
Chain of VYD222 (antibody) (VH): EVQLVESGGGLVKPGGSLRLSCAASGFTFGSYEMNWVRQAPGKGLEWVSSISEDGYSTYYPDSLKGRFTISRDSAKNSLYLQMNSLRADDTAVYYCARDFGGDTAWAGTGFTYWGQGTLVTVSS
Chain of VYD222 (antibody) (VL): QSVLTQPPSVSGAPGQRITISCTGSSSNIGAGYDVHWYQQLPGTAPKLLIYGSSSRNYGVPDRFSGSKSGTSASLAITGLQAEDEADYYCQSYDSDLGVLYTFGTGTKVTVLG

Row | Substance | KD App [1] | KD App [2] | KD App [3] | KD App [4] | KD App [5] | KD App [6] | KD App [7] | KD App [8] | KD App [9] | KD App [10] | KD App [11] | KD App [12]
1 | ADI-58125 (antibody) | 1.32 nM | 0.57 nM | 1.53 nM | 1.83 nM | 2.72 nM | 3.2 nM | 0.79 nM | 1.07 nM | 0.96 nM | 1.03 nM | 1.02 nM | 
2 | VYD222 (antibody) | 0.97 nM | 0.23 nM | 0.49 nM | 0.9 nM | 0.74 nM | 0.54 nM | 0.45 nM | 0.24 nM | 0.67 nM | 0.15 nM | 0.44 nM | 
3 | VYD224 (antibody) | 0.33 nM | 9.13 nM | 10.8 nM | 0.93 nM | 12.3 nM | 1.68 nM | 15.9 nM | 13.5 nM | 0.32 nM | 1.63 nM | 15.6 nM | 0.87 nM
